In publication PMC2647295:

Target: MUC1-5TR (unglycosylated, five MUC1 tandem repeats) (UniProt P15941 126-225)
Assay: SPR

Chain of MUC1-5TR (unglycosylated, five MUC1 tandem repeats) (P15941 126-225): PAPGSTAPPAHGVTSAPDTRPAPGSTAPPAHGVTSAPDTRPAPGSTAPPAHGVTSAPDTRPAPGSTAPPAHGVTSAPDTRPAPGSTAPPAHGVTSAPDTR

GAAGTGAAAATGACAGAACACAACA (ssDNA) [5TR1] showed a Kd of 21 nM.

GGCTATAGCACATGGGTAAAACGAC (ssDNA) [5TR2] was tested, and the Kd was 85.2 nM.

Work on CAAACAATCAAACAGCAGTGGGGTG (ssDNA) [5TR3] yielded a Kd of 83 nM.

In the case of TACTGCATGCACACCACTTCAACTA (ssDNA) [5TR4], the Kd is reported as 69 nM.
